According to patent US20250264470A1 (RHODE ISLAND HOSPITAL, published 2025):

Biological target: T1, NPVEDS peptide (LRC1 epitope, residues 286-291 of ASPH) (human)
T1 peptide: NPVEDS
Assay: peptide inhibition (data not shown)

B1: LRC1 monoclonal antibody (antibody, V domains shown)
VH: EVQLVESGGGLVKPGGSLKFSCAASGFTFSRYAMPWVRQTPEKRLEWVATISSGGSYTYYPDSVKGRLTISRDNAKNTLYLQMSSLRSEDTAMYYCARQGNYYGSSHLYYAMDYWGQGTSVTVSS
VL: QLVLTQSSSASFSLGASAKLTCTLNSQHRAYTIEWYQQQPLKPPKYVMELKKDGSHSTGDGIPDRFSGSSSGADRYLSISNIQPEDEAIYICGVGDTIKEQFVYVFGGGTKVTVL
notes: also called LRC1 mAb; LRC1 antibody
B1: binds.
